The target of one series is T1, SLFN11 (Homo sapiens, UniProt Q7Z7L1, S753D).
T1 construct: S753D monomer, 104 kDa, model residues 7-897
T1 sequence (Q7Z7L1 1-901 S753D): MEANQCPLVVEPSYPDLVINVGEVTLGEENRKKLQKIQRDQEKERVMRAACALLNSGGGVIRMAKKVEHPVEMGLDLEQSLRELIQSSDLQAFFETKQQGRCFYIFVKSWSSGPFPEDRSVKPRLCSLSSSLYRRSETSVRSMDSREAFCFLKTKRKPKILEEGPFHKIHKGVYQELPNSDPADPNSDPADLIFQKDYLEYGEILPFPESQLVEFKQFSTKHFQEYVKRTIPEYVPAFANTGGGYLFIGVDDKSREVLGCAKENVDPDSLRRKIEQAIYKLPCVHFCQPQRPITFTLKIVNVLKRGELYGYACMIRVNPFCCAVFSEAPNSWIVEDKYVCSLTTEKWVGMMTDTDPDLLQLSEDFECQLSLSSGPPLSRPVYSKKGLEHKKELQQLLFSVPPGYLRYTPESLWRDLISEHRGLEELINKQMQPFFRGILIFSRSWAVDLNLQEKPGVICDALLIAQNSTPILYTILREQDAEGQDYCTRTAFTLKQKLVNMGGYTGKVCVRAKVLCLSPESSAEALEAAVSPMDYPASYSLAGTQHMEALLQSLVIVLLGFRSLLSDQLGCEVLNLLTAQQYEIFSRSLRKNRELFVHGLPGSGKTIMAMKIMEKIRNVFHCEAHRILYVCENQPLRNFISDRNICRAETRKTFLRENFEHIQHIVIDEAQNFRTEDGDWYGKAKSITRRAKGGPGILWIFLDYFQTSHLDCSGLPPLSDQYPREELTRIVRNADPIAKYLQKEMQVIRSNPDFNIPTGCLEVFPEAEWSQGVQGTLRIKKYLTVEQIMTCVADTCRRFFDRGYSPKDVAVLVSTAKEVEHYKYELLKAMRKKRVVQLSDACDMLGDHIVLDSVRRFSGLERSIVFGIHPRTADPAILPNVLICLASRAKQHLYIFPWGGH
Briefly: nanoDSF thermal shift (Tycho NT.[…]). It is filed as binding. Conditions: 1 mM nucleotide, 300 nM protein, 25 mM Tris pH 7.5, 60 mM NaCl, 2 mM MgCl2. (In general: Differential scanning fluorimetry follows unfolding on heating by fluorescence.)

Series [1] deals with the molecule itself. Description: mass photometry; 50 nM SLFN11 in 25 mM Tris pH 7.5, 2 mM MgCl2, 1 mM DTT with variable concentrations of NaCl (80 mM NaCl in Fig. 4d, e); dimer to monomers.

With `Nc1ncnc2c1ncn2[C@@H]1O[C@H](COP(=O)(O)OP(=O)(O)OP(=O)(O)O)[C@@H](O)[C@H]1O` [ATP], at SLFN11, the inflection temperature shift entry was “ATP and ATPγS caused a large increase in the inflection temperatures of SLFN11^S753D”.

B1: Human Schlafen 11 (SLFN11), wild type (enzyme)
chain: MEANQCPLVVEPSYPDLVINVGEVTLGEENRKKLQKIQRDQEKERVMRAACALLNSGGGVIRMAKKVEHPVEMGLDLEQSLRELIQSSDLQAFFETKQQGRCFYIFVKSWSSGPFPEDRSVKPRLCSLSSSLYRRSETSVRSMDSREAFCFLKTKRKPKILEEGPFHKIHKGVYQELPNSDPADPNSDPADLIFQKDYLEYGEILPFPESQLVEFKQFSTKHFQEYVKRTIPEYVPAFANTGGGYLFIGVDDKSREVLGCAKENVDPDSLRRKIEQAIYKLPCVHFCQPQRPITFTLKIVNVLKRGELYGYACMIRVNPFCCAVFSEAPNSWIVEDKYVCSLTTEKWVGMMTDTDPDLLQLSEDFECQLSLSSGPPLSRPVYSKKGLEHKKELQQLLFSVPPGYLRYTPESLWRDLISEHRGLEELINKQMQPFFRGILIFSRSWAVDLNLQEKPGVICDALLIAQNSTPILYTILREQDAEGQDYCTRTAFTLKQKLVNMGGYTGKVCVRAKVLCLSPESSAEALEAAVSPMDYPASYSLAGTQHMEALLQSLVIVLLGFRSLLSDQLGCEVLNLLTAQQYEIFSRSLRKNRELFVHGLPGSGKTIMAMKIMEKIRNVFHCEAHRILYVCENQPLRNFISDRNICRAETRKTFLRENFEHIQHIVIDEAQNFRTEDGDWYGKAKSITRRAKGGPGILWIFLDYFQTSHLDCSGLPPLSDQYPREELTRIVRNADPIAKYLQKEMQVIRSNPSFNIPTGCLEVFPEAEWSQGVQGTLRIKKYLTVEQIMTCVADTCRRFFDRGYSPKDVAVLVSTAKEVEHYKYELLKAMRKKRVVQLSDACDMLGDHIVLDSVRRFSGLERSIVFGIHPRTADPAILPNVLICLASRAKQHLYIFPWGGH
notes: Schlafen 11 (SLFN11), human; N-terminal nuclease domain, linker domain and C-terminal helicase domain; also called SLFN11^wt
For B1, the “stoichiometry N” value in series [1] worked out at 2.

B2: SLFN11 phosphomimetic mutant T230D (enzyme, human)
chain: MEANQCPLVVEPSYPDLVINVGEVTLGEENRKKLQKIQRDQEKERVMRAACALLNSGGGVIRMAKKVEHPVEMGLDLEQSLRELIQSSDLQAFFETKQQGRCFYIFVKSWSSGPFPEDRSVKPRLCSLSSSLYRRSETSVRSMDSREAFCFLKTKRKPKILEEGPFHKIHKGVYQELPNSDPADPNSDPADLIFQKDYLEYGEILPFPESQLVEFKQFSTKHFQEYVKRDIPEYVPAFANTGGGYLFIGVDDKSREVLGCAKENVDPDSLRRKIEQAIYKLPCVHFCQPQRPITFTLKIVNVLKRGELYGYACMIRVNPFCCAVFSEAPNSWIVEDKYVCSLTTEKWVGMMTDTDPDLLQLSEDFECQLSLSSGPPLSRPVYSKKGLEHKKELQQLLFSVPPGYLRYTPESLWRDLISEHRGLEELINKQMQPFFRGILIFSRSWAVDLNLQEKPGVICDALLIAQNSTPILYTILREQDAEGQDYCTRTAFTLKQKLVNMGGYTGKVCVRAKVLCLSPESSAEALEAAVSPMDYPASYSLAGTQHMEALLQSLVIVLLGFRSLLSDQLGCEVLNLLTAQQYEIFSRSLRKNRELFVHGLPGSGKTIMAMKIMEKIRNVFHCEAHRILYVCENQPLRNFISDRNICRAETRKTFLRENFEHIQHIVIDEAQNFRTEDGDWYGKAKSITRRAKGGPGILWIFLDYFQTSHLDCSGLPPLSDQYPREELTRIVRNADPIAKYLQKEMQVIRSNPSFNIPTGCLEVFPEAEWSQGVQGTLRIKKYLTVEQIMTCVADTCRRFFDRGYSPKDVAVLVSTAKEVEHYKYELLKAMRKKRVVQLSDACDMLGDHIVLDSVRRFSGLERSIVFGIHPRTADPAILPNVLICLASRAKQHLYIFPWGGH
notes: Schlafen 11 (SLFN11), human, with the phosphomimetic mutation T230D in the nuclease domain; Made by quick change PCR from the wild-type construct; also called SLFN11^T230D
B2: the “stoichiometry N” value in series [1] turned out to be 2.

B3: SLFN11 phosphomimetic mutant S219D (enzyme, human)
chain: MEANQCPLVVEPSYPDLVINVGEVTLGEENRKKLQKIQRDQEKERVMRAACALLNSGGGVIRMAKKVEHPVEMGLDLEQSLRELIQSSDLQAFFETKQQGRCFYIFVKSWSSGPFPEDRSVKPRLCSLSSSLYRRSETSVRSMDSREAFCFLKTKRKPKILEEGPFHKIHKGVYQELPNSDPADPNSDPADLIFQKDYLEYGEILPFPESQLVEFKQFDTKHFQEYVKRTIPEYVPAFANTGGGYLFIGVDDKSREVLGCAKENVDPDSLRRKIEQAIYKLPCVHFCQPQRPITFTLKIVNVLKRGELYGYACMIRVNPFCCAVFSEAPNSWIVEDKYVCSLTTEKWVGMMTDTDPDLLQLSEDFECQLSLSSGPPLSRPVYSKKGLEHKKELQQLLFSVPPGYLRYTPESLWRDLISEHRGLEELINKQMQPFFRGILIFSRSWAVDLNLQEKPGVICDALLIAQNSTPILYTILREQDAEGQDYCTRTAFTLKQKLVNMGGYTGKVCVRAKVLCLSPESSAEALEAAVSPMDYPASYSLAGTQHMEALLQSLVIVLLGFRSLLSDQLGCEVLNLLTAQQYEIFSRSLRKNRELFVHGLPGSGKTIMAMKIMEKIRNVFHCEAHRILYVCENQPLRNFISDRNICRAETRKTFLRENFEHIQHIVIDEAQNFRTEDGDWYGKAKSITRRAKGGPGILWIFLDYFQTSHLDCSGLPPLSDQYPREELTRIVRNADPIAKYLQKEMQVIRSNPSFNIPTGCLEVFPEAEWSQGVQGTLRIKKYLTVEQIMTCVADTCRRFFDRGYSPKDVAVLVSTAKEVEHYKYELLKAMRKKRVVQLSDACDMLGDHIVLDSVRRFSGLERSIVFGIHPRTADPAILPNVLICLASRAKQHLYIFPWGGH
notes: Schlafen 11 (SLFN11), human, with the phosphomimetic mutation S219D in the nuclease domain; Made by quick change PCR from the wild-type construct; also called SLFN11^S219D
Consider B3, for which the “stoichiometry N” value in series [1] was 2.

Broadly, the stoichiometry N is a count of units in the complex or per binding partner.

Source of the values: publication PMC11615386, “Phosphorylation-mediated conformational change regulates human SLFN11” (Nature Communications, 2024).
